Here are results for one molecule from patent US20200246383A1 (REGENTS OF THE UNIVERSITY OF MINNESOTA, published 2020).

The target of test [1] is T1, human dipeptidyl peptidase IV expressed on cells (PC3 and CaCo2 cells) (human, UniProt P27487 1-766).
T1 construct: whole, on cells; also called hDPP-IV-expressing cells; hDPP-IV-positive cell lines
As to the kind of experiment: flow cytometry, Alexa Fluor 488 conjugated B12 IgG on hDPP-IV-expressing PC3 cells against unstained cells.

The target of test [2] is T2, recombinant human dipeptidyl peptidase IV (hDPP-IV), biotinylated (human, UniProt P27487 29-766, limits assumed, biotinylated).
T2 construct: also called human DPP-IV
As to the kind of experiment: ELISA: B12 IgG 0.1 to 500 nM on biotinylated hDPP-IV captured on streptavidin-coated wells; detection with peroxidase anti-human IgG mAb; OD 450nm. The procedure: FIG. 2A-FIG. 2E show in vitro characterization of the anti-FAP monoclonal antibody B12 immunoglobulin G (IgG). FIG. 2A. B12 IgG specificity for human fibroblast activation protein alpha (hFAP) (circle), mouse fibroblast activation protein alpha (mFAP) (square), and the homologous protease human dipeptidyl peptidase IV (hDPP-IV) (triangle) was determined by enzyme-linked immunosorbent assay (ELISA). B12 IgG was serial-diluted from 500 nM to 0.1 nM and added to protein coated wells. B12 IgG binding was detected by a peroxidase conjugated […] monoclonal antibody. FIG. 2B. […] FIG. 2C. B12 IgG binding to membrane-bound FAP was analyzed by flow cytometry. […] Unstained cells (blue line) were used as a negative control. FIG. 2D. mRNA levels of hDPP-IV were investigated by quantitative RT-PCR in prostate (R1-EnzR, R1-EnzR^FAP, PC3) and colon (Caco2) cancer cells. mRNA fold change is normalized to R1-EnzR. **p 0.01. FIG. 2E.
Dilution ELISA: A MaxiSorp plate was coated and blocked as described above. 50 μL of biotinylated human FAP, murine FAP, or human DPP-IV ([…] in PBS, 1% BSA, 0.005% Tween20) was added to 8 sets of triplicate wells each. […] B12 IgG binding was detected with a 1:1000 dilution of anti-human IgG monoclonal antibody conjugated to peroxidase (sc-2769, Santa Cruz Biotechnology, Dallas, Tex.) in PBS, 1% BSA.

T1 sequence (P27487 whole entry): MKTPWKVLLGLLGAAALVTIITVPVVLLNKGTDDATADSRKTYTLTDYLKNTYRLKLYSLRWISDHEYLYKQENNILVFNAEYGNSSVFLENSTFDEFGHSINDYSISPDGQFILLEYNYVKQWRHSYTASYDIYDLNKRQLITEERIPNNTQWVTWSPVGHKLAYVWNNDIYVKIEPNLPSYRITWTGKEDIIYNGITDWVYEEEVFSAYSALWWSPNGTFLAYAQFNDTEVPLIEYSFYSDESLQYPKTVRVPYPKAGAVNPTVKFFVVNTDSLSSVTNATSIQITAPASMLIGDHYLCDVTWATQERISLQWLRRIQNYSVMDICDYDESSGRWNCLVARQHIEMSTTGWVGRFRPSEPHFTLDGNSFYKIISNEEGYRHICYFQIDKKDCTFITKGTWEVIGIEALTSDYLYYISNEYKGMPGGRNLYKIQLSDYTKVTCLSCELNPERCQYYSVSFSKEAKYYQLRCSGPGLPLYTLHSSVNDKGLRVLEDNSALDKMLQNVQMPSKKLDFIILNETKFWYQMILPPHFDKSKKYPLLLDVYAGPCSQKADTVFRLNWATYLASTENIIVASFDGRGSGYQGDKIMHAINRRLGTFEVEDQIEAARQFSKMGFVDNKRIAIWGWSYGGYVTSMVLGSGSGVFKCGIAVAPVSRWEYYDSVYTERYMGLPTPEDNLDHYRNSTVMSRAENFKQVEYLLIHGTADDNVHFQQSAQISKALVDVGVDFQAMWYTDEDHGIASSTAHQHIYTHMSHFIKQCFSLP
T2 sequence (P27487 29-766 limits assumed): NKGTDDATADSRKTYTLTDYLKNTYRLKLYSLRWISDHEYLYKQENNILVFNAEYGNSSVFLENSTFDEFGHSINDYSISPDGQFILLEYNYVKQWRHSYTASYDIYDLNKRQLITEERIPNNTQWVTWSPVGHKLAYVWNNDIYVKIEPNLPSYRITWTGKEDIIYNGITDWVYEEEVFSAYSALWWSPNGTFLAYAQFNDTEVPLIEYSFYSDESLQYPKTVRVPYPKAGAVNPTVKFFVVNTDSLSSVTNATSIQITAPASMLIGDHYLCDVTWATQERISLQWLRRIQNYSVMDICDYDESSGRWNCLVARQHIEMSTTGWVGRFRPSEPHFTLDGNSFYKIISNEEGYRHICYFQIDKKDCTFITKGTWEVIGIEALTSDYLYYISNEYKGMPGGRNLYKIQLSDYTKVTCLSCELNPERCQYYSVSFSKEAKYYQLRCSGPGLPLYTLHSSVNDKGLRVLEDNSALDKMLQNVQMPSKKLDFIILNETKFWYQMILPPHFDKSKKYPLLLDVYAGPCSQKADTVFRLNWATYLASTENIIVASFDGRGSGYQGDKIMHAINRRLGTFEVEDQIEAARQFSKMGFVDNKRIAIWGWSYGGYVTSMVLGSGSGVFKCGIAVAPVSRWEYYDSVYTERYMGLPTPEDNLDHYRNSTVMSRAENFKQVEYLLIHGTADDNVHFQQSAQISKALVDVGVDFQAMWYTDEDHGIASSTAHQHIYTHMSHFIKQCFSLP

B1: B12 IgG (chimeric anti-FAP monoclonal antibody: murine B12 variable domains in a full-length human IgG) (antibody, V domains shown)
VH: EVMLVESGGGLVQPGGSLKLSCAASGFTFSSYGMSWVRQTPDKRLELVATINSNGGSTYYPDSVKGRFTISRDNAKNTLYLQMSSLKSEDTAMYYCARDYFDYWGQGTTLTVSS
VL: DIVITQSPSSLSASLGERVSLTCRASQEISGYLSWLQQKPDGTIKLIYAASTLDSGVPKRFSGSRSGSDYSLTISSLESEDFADYYCLQYASYPWTFGGGTKLEIKR
notes: They were cloned into pFUSEss human IgG expression vectors (Invivogen) and expressed in HEK293T cells; capture was detected with an anti-human IgG1 secondary and the isotype control is human IgG1; also called anti-FAP mAb; aFAP
Regarding B1, the binding result in test [1] is reported as “no binding (tested: 100 nM)”; in test [2], “no binding (tested: 500 nM)”.
